This is an account of results in patent US20240228596A1.

For the assay, the target named is SARS-COV-2 Wuhan WT Spike_del18 on VSV-delG pseudotyped particles (SARS-COV-2) (UniProt P0DTC2). Put plainly: cell-based or functional assay.

The substance “VHH72-5mut-Fc (VHH72_h1_E1D_R27L_E31D_Y32I_S56G_L97A-10xGS-hIgG1_EPKSCdel_LALA_K447del) (Fc fusion)” returned a potency of neutralization against D72-53 of 2.5 times.
